The text below walks through data of PMC11906780 (Scientific Reports, 2025).

For assay [1], the target named is T1, RSV strain A2 (RSV/A2) G glycoprotein ectodomain (RSV G^ecto) (Human respiratory syncytial virus A, …, UniProt P03423).
T1 construct: not shown: 6xHistidine-Tag, C-terminal, kept
The experiment in a line: BLI. The following applies: both partners purified.

The target of assay [2] is RSV G^ecto with GalNAc-restricted O-glycosylation (Human respiratory syncytial virus A, …, UniProt P03423). As to the kind of experiment: cryo-EM structure. Particulars: both partners purified.
Sequence of RSV G^ecto with GalNAc-restricted O-glycosylation (P03423 whole entry, looked up): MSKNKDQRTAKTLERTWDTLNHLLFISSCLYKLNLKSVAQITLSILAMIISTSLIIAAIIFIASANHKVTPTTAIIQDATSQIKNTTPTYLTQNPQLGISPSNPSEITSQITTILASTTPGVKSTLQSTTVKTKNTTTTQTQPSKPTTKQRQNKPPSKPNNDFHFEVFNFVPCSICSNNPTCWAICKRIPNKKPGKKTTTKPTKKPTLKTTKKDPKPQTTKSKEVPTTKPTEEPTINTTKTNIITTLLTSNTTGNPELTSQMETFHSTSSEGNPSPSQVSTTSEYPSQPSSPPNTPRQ

T1 sequence (P03423 whole entry, looked up, the tested form may be a part): as the sequence (P03423 whole entry, looked up) above

B1: human monoclonal antibody 3G12 (recombinant human IgG1) (antibody, V domains shown)
VH: QLQLQESGPGLVKPSETLSLTCTVSGGSISSSNYYWGWIRQPPGKGLEWIASIHDSGSIYYNPSLRSRVTISVDTSKNQFSLKLSSVTAADTAVYYCARHLVWFGELRNNWFDPWGQGTLVTVAS
VL: EIVMTQSPATLSVSPGERATLSCRASQSVNSNLAWYQHKPGQAPRLLIYGASTRATGIPARFSGSGSGTDFTLTISSLQSEDFAVYYCQQYNNWPLFGPGTKVDLK
notes: also called mAb 3G12; source: CHO-S, electroporated, purified (HiTrap Protein G)
As to B1, in assay [1], the binding result was “binds”.

B2: human monoclonal antibody 2D10 (recombinant human IgG1) (antibody, V domains shown)
VH: QVQLVQSGPEVKKPGASVRLSCKASGYVFTNYGVSWVRQAPGQGLEWMGWSSPYNGNTYYAQKLKARVTMTTDTSTNTAYMELRSLRSDDTAVYYCGRDMLGVVQAVAGPFDSWGQGTLVTVSS
VL: DTPMTQSPSSVSASVGDRVTISCRASQGISNSLAWYQQKLGKAPQLLIYAASSLQSGVPSRFSGSGSGTDFTLTISSLQPEDFATYYCQQTNTFPFTFGPGTKVEVR
notes: also called mAb 2D10; source: CHO-S, electroporated, purified (HiTrap Protein G)
With B2, the binding result in assay [1] is recorded as “binds”.

B3: Fab 2D10 (papain fragment of mAb 2D10) (Fab, V domains shown)
VH: B2 VH
VL: B2 VL
notes: source: papain digestion of the full length mAb from CHO-S, Fc removed with protein A, purified (Superdex 200 SEC)
As to B3, the binding result in assay [2] is reported as “binds”.

B4: Fab 3D3 (papain fragment of mAb 3D3) (Fab, V domains shown)
VH: EEQLVESGGGLVQPGRSLRLSCVGSGLRFEEHAMHWVRQAPGRGLEWVSGISWNSGSVGYADSVKGRFTTSRDNAKDILFLEMNTLRSEDTALYFCAIMVATTKNDFHYYKDVWGKGTTVTVSS
VL: QIVLTQSPATLSLSPGERATLSCRASQSVSNHLAWYQQKPGQAPRLLIYETSNRATGIPPRFSGSGSGTDFTLTISSLEPEDFAVYYCQQRNNWYTFGQGTKLEIK
notes: as for B3
B4: the binding result in assay [2] was “binds”.

B5: human monoclonal antibody 3D3 (recombinant human IgG1) (antibody, V domains shown)
VH: B4 VH
VL: B4 VL
notes: also called mAb 3D3; TRL3D3; source: CHO-S, electroporated, purified (HiTrap Protein G)
For B5, in assay [1], the binding result is “binds”.
